Biological target: NS1 (Influenza A virus (A/PR/8/34), UniProt P03496 P03496:1-230)
Assay: EMSA; 2 pM siRNA with 0-200 pM protein as printed; on ice 20 min; native 5% PAGE
Conditions: tags: N-terminal His tag (pQE31, Qiagen); label: 5'-33P; 19-bp duplex with 3' dTdT overhangs

NS1, sequence (P03496 whole entry, one chain of several): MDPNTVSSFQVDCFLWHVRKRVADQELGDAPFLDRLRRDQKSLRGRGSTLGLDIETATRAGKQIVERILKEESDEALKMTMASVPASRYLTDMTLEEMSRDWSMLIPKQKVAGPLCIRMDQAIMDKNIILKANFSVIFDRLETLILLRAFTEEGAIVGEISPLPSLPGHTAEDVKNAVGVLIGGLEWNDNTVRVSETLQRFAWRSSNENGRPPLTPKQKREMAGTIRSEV

B1: GL3 luciferase siRNA (dsRNA)
RNA 1: CUUACGCUGAGUACUUCGATT
RNA 2: UCGAAGUACUCAGCGUAAGTT
modifications: 3'-terminal TT of each strand are deoxynucleotides
Question: Does B1 bind?
Answer: binds
